The target of test [1] is SARS-CoV-2 (WT) Spike RBD Protein (His Tag) (SARS-CoV-2 ancestral (Wuhan-Hu-1), UniProt P0DTC2).
For test [2], the target named is SARS-CoV-2 Omicron BA.1 RBD (SARS-CoV-2 Omicron BA.1, strain).

B1: BD55-5263 (antibody, V domains shown)
VH: QVQLVQSGAEVKKPGASVKVSCKGSGYIFTNYGVSWVRQAPGQGLECMGWISAYNGNTDYTQKFQGRVTMTTDTSTSTAYMELRSLTSDDTAVYYCARAAHNWGPEDAFDIWGQGSMVTVSS
VL: not shown
B1: the binding result in test [1] is reported as “binds”.

B2: BD55-5259 (antibody, V domains shown)
VH: QITLKESGPTLVKPTQTLTLTCTFSGFSLTMPEVGVAWVRQPPGKALEWLALIYGDDNKRYSPSLESRLTITKDSSKNQVVLTMTNLDSVDTATYYCARRKFLWDSDPVAFDYWGLGTLVIVSS
VL: DIVMTQTPLSLPVTLGQPASISCRSSQSLVHIDGNIYLSWLQQRPGQPPRLLIYKISNRFSGVPDRFSGSGSGTDFTLKISRVEAEDVGVYYCMQATQFPHEMYTFGQGTKLEIR
B2: in test [1], the binding result is recorded as “binds”.

B3: BD55-5268 (antibody, V domains shown)
VH: QVQLQQRGAGLLRPSETLSLTCDVSGGSFSGYYWNWVRQPPGKGLEWIGDIDLAGDNYNPSLKSRVTMSIDASKNQFSLRLSSVTAADTAVYFCVRAPNLGWFGPKQGAFDLWGQGTVVIVSS
VL: not shown
Consider B3, for which the binding result in test [1] is on record as “binds”.

B4: BD55-5264 (antibody, V domains shown)
VH: QVQLVQSGAEVKKPGASVKVSCKVSGYTLTKFSIHWVRQGHGKGLEWMGGFDIGEGGTIYAQKFQGRVTMTEDTSTDTSYMELSSLRSEDTAMYYCATDGEYSSGWAGVKLWGQGTLVTVSS
VL: DIQMTQSPSTLSASVGDRVTITCRASQSISSWLAWYQQKPGKAPKLLIYKASSLESGVPSRFSGSGSGTEFTLTISSLQPDDFATYYCQQCDSYPWTFGQGTKVEIK
In the case of B4, the binding result in test [1] is “binds”.

B5: BD55-5276 (antibody, V domains shown)
VH: EVHLEESGGGLVHPGRSLRLSCAASGFTLDEYAMHWVRRAPGKGLEWVSGISWNSGARGYADSVKGRFTISRDNAKNSLYLQMNSLRAEDTAFYYCAKDNSHGSGTAWDWLDSWGQGTLVTVSS
VL: NFMLTQPHSVSESPGKTVTISCTRSSGTITNNYVQWYRQRPGSSPTTVIFEDNQRPSGVPDRFSGSIDSSSNSASLTISGLKTEDEADYYCQSHDSSNWVFGGGTKLTVL
B5: in test [1], the binding result was “binds”.

B6: BD55-5267 (antibody, V domains shown)
VH: QVQLQESGPGLVKPSGTLSLTCAVSGGSISSSNWWSWVRQPPGKGLEWIGEIYHSGSTNYNPSLKSRVTISVDKSKNKFSLKLSSVTAADTAVYFCARAGWIESGYDAFVGYFDYWGQGTLVTVSS
VL: DIQMTQSPSSLSASVGDRVTITCRASQGISSSLAWYQQKPGKAPDLLLYAASGLESGVPSRFSGSGSGTDFTLSISSLQPEDFATYYCQQYYSPPRTFGQGTKLEIK
With B6, in test [1], the binding result was “binds”.

B7: BD55-3152 (antibody, V domains shown)
VH: QVQLVQSGAEVKKPGASVIVSCKASGYRFISHYIHWVRQAPGQGLEWMGKIDPSGRGTTYAQKLQGRVSVTRDTSTSSVYMALSGLRSDDTAVYYCARDRFPLSDPYVWGSPLGGLDVWGQGTTVIVSS
VL: SYDLTQPPSVSVSPGQTARITCSGDALPSQYVYWYQQRPGQAPVLVMYKDSERPPGIPERFSGSTSGTTATLTITGVQAEDEADYYCQSADASTTYHVFGGGTKVTVV
Take B7: in test [2], the binding result is listed as “binds”.

B8: BD55-5265 (antibody, V domains shown)
VH: EVQLVQSGAEVKKPGESLKISCKGAGYIFTHYWIAWVRQMPGKGLEWMGIVHPGDSDTRYSPSFQAQVTISADKSINTAYLQWSSLKASDTAIYFCARHGVHSGYSGYDRWDGHYYGMDVWGQGTTVTVSA
VL: SYVLTQPPSVSVAPGKTARITCGGNNIGSKSVHWYQQKPGQAPVLVVYDGSERPSGIPERFSGSNSENTATLTISRVEAGDEADYYCQVWNDNSDSLVFGTGTEVTVL
In the case of B8, the binding result in test [1] is “binds”.

B9: BD55-5271 (antibody, V domains shown)
VH: QVTLKESGPVLVKPTETLTLTCTVSGISLNNARMAVSWIRQPPGKALEWLAHILSNDEKSFSKSLTSRLTISKDSSKNQVVLRLTNMDPVDTGTYYCARIVYDSSSYYYSGDNWFDPWGQGTQVTVSS
VL: SYELTQPPSVSVSPGQTARITCTGDAFPNQYAYWYQQKSGQAPVLVIYKDSERPSGIPERFSGSSAGTTVTLTISGVQAEDEADYYCQSADSRGVVFGGGTKVTVL
For B9, the binding result in test [1] was “binds”.

B10: BD55-3372 (antibody, V domains shown)
VH: EVHLVESGGGLVKPGGSLRLSCAASGFTFSNYAMNWVRQAPGKGLQWVSSITGSSSFIFYADSVKGRFTIVRDNAQNSLYLQMNSLRDEDTAVYYCARERDDYDTRLDWGQGTLVTVSS
VL: QPMLTQPPSVSGAPGQTVTISCVGSSSNIGAGYEVHWYQQLPGTAPKRLLSGNSDRPSGVPDRFSGSKSGTSASLAITGLQADDEADYYCQSYDSSLSLSAVVFGGGTKLTVL
With B10, the binding result in test [2] is “binds”.
